Entries after “also recorded” stand apart in the source; their conditions may differ. Blank lines part the entries; values can stand above or below the sequence they belong to.
Assays:
[1] = tested on: actin comet tails in Xenopus egg extracts; assay: Actin comet-tail formation in cytoplasmic extracts; assay type: biochemical, Xenopus laevis; settings: for effect on actin comet tails: FIGS. 4C, 4D, 4F, concentration not given
Experimental: In FIGS. 4A and 4B, in vitro polymerized actin forms comet tail from rhodamine-labeled actin added to Xenopus laevis egg cytoplasmic extract. This was set up according to the protocol in Taunton et al., J Cell Biol. 2000 Feb. 7; 148(3):519-30.
Crude Xenopus egg extract was prepared as described except that cytochalasin D was omitted (Murray and Kirschner, Nature. 1989 May 25; 339(6222):275-80). Cytosol and a heavy membrane fraction were prepared by centrifugation of the crude extract (2 h, 300.000 g max; BECKMAN SW-50 rotor). The viscous glycogen pellet beneath the membrane layer was discarded. Cytosol was further clarified by spinning for 15 min at 541,000 g max (BECKMAN TLA 100.3 rotor). Crude membranes (diluted with one volume of 2 M sucrose) and cytosol were snap frozen in separate aliquots for storage at −80° C. unless otherwise indicated. Clarified cytosol contained a small population of vesicles, but motility assays were far more robust (more comet tails over a longer time period) when cytosol was supplemented with the heavy membrane fraction.
For the standard assay, crude membranes in 1 M sucrose (20-μl aliquot, derived from ˜80 μl crude extract) were washed and resuspended in 14 μl buffer A (50 mM NaCl, 5 mM MgCl2, and 50 mM tris [pH 7.5]). To the membrane suspension were added 35 μl cytosol (derived from ˜80 μl crude extract), 0.3 μl rhodamine-labeled actin (prepared according to Kellogg et al., Development. 1988 August; 103(4):675-86), 3 μl PMA (20 μM stock in 10% DMSO), and 20 μl buffer A at 4° C. 20-μl samples were then warmed to room temperature. After 30-40 min, 2-μl aliquots were viewed with a Nikon E800 microscope to yield the photomicrographs of FIG. 4. Images were acquired with a Princeton Instruments cooled CCD camera (standard rhodamine filter set, Princeton Instruments, Trenton, N.J.) and analyzed with WINVIEW (Visitron System, Puchheim, Germany) or METAMORPH software (Princeton Instruments, Trenton, N.J.). Pixels having an intensity over a threshold value (set to a value greater than the background fluorescence in regions devoid of comet tails) were summed over 10 random fields to quantitate relative actin assembly.
Cytosol was supplemented with a crude membrane fraction, rhodamine-actin, 1 μM PMA and peptide SS2 or SS12 (1 μM). After incubating at room temperature for 20 min, samples were viewed by fluorescence. Actin comet tails formed in Xenopus cytoplasmic extracts where no SS2 or SS12 peptides were added as shown by the photographs A, B and E of FIG. 4.

[2] = tested on: Embryos from Xenopus laevis; assay: Actin-dependent cleavage in embryos injected with peptide; assay type: in vivo; settings: 0.6 mg/mL final concentration in egg; for effect on cell division of embryos: injected, fixed at 8-cell stage
Source text: Referring now to photographs of FIG. 3 the peptides have a severely abnormal effect on the embryonic development of cells. […] The embryos resemble the uninjected normal embryos of FIG. 3A
The resulting blastomeres were unable to regain function and were severely abnormal showing abortive cleavage furrows.
However, in the embryos injected with the active peptide (FIG. 3F), filamentous actin is seen in the abortive cleavage furrows.

rabbit muscle actin = biological target: T1, rabbit muscle actin (Oryctolagus cuniculus, UniProt P68135); assay: In vitro bundling of actin by peptides (co-polymerization, differential centrifugation, SDS gel); assay type: biochemical; settings: for bundled actin upon inducing polymerization: polymerization induced (PI +); for In vitro actin bundling activity: Tables 2 and 3, peptide co-polymerized with actin in vitro; for activity designation of the peptide in the sequence list (active / less active / inactive): summary sequence table
T1 construct: Purified rabbit muscle actin (Cytoskeleton Inc., Denver, Mo.); purchased Cytoskeleton Inc; host or cells: rabbit muscle
Experimental: The peptides in Table 2 were added to polymerised actin in vitro at different molar ratios. Centrifugation was used to separate fractions containing F-actin, G-actin and bundled actin, which were then run out on […]. Purified rabbit muscle actin (Cytoskeleton Inc., Denver, Mo.) was depolymerized in Low Salt Buffer [LSB; 5 mM Tris-HCl, pH 8.0, 0.2 mM CaCl2, 0.2 mM ATP, 0.5 mM DTT, mM sucrose) for 1 h on ice and denucleated by centrifugation for 1 h at 100,000×g, 4° C. 13 μM monomeric actin was polymerized in vitro by addition of 1/50 vol. […] The samples were centrifuged for 15 min at 10,000×g at room temperature to pellet “bundled filaments”. The resulting supernatant was centrifuged for 1 h at 100,000×g at room temperature to separate F-actin filaments […]. The fractions were boiled in SDS-sample buffer and analyzed on a 10% SDS-Polyacrylamide gel stained with Coomassie.

[3] = biological target: T2, rabbit muscle aldolase with actin (Oryctolagus cuniculus, UniProt P68135); assay: Aldolase co-precipitation with polymerized actin; assay type: biochemical; settings: 1 nmol aldolase, 100 nmol peptide
T2 construct: presence (lanes 4-6) of rabbit muscle actin (2 nmol); purchased Sigma (aldolase); host or cells: rabbit muscle
Source text: Referring now to FIG. 7, since the SS2 sequence is specific to SuSy protein (with SS2 having some similarity to actin), we tested its effect on the well-known interaction of rabbit muscle aldolase with actin (Winter et al. 1998, Rabbit muscle aldolase was purchased from Sigma). Phalloidin could potentially interfere with the peptides of the invention since both drugs affect actin.
Addition of SS2 peptide had no effect on aldolase precipitation in the absence of actin (FIG. 7A), but increased the amount of aldolase co-precipitating with polymerized actin (FIG. 7B). Although binding of aldolase to actin is not sucrose dependent as shown for SuSy, the presence of Sucrose in the polymerization assay caused an additional increase in the amount of aldolase bound to polymerized actin as shown by lane 6 in FIG. 7B. Rabbit muscle aldolase (1 nmol) was incubated in the absence (lanes 1-3) or presence (lanes 4-6) of rabbit muscle actin (2 nmol).

MDA 231 cells = assay: Actin reorganization in MDA 231 cells electroporated with peptide, rhodamine-phalloidin stained; assay type: cell-based, human; settings: MDA 231 cells electroporated with peptide
Experimental: Referring now to FIG. 2, it can be shown that treatment with an active peptide results in actin organization in human mammary epithelial tumor cells. MDA 231 cells were electroporated with SS1 (panel A) or SS12 (panel B), fixed, and rhodamine-phalloidin stained. Control epithelial tumor cells were treated with SS1 (SEQ ID NO: 9) resulting in no effect on actin-filled lamellipodia (or ruffling) characteristic of crawling cells.
MDA 231 cells are a particularly aggressive tumor cell line crawling and moving from between tissues.

[4] = tested on: dextran-labeled electroporated cells; assay: Change in number of dextran-labeled cells after electroporation with peptide; assay type: cell-based; settings: dextran-labeled cells counted before and after 18 hrs incubation
Experimental: Electroporated cells were treated with fluorescent dextran plus peptide so those cells receiving the peptide could be identified. Typically a very small number of cells successfully incorporate substance during electroporation, making it difficult to identify those receiving peptide. Typically one sees 10-20% incorporation. But, there is good evidence showing that if a cell incorporates one component in buffer, it will incorporate all components. Thus, dextran can be used to identify those cells receiving peptide. After electroporation of cells with fluorescent dextran and the active peptide SEQ ID NO: 12, the dextran-labeled cells were initially counted and then incubated for 18 hrs. After incubation overnight, the dextran-labeled cells were once again counted. The following Tables 4 and 5 show the average change in dextran-labeled cells after the cells are electroporated and the peptide has invaded the cell body. The cell numbers of the SS12 treated peptide seemed to fluctuate after incubation with various concentrations of the SS12 peptide.

[5] = 1:1 molar ratio peptide:actin, FIGS. 6C, 6D

Sequence: ENGIVRKWISRFEVW (synthetic peptide derived from Zea mays SuSy2 protein 357-389) [SEQ ID NO: 3, Zea mays SuSy2 375-389]
- effect on actin comet tails [1]: complete disruption of the comet tails

Sequence: GIVRKWISRFEVWPYLKK (SS2 active peptide based on Zea mays SuSy 377- 392)
- effect on actin comet tails [1]: complete disruption of the comet tails
- actin comet tail formation ([1]; peptide 1 μM, 1 μM PMA, 20 min at room temperature): little or no actin comet tail formation
- lasting effect on cell division ([2]; divisions typically an hour apart): at least 3 divisions
- effect on cell division of embryos [2]: block several cell divisions
- bundling of actin during in vitro polymerization (rabbit muscle actin): most active
- bundling of already polymerized (filamentous) actin (rabbit muscle actin; 2 nmol actin polymerized 30 min, then 0, 1, 2, 4 and 20 nmol peptide for 30 min, FIG. 6B): Only the highest concentration of SS2 caused bundling
- bundled actin upon inducing polymerization (rabbit muscle actin; [5]): the bulk of the actin is bundled
- bundled actin with peptide alone (rabbit muscle actin; 1:1 molar ratio peptide:actin, polymerization not induced, FIGS. 6C, 6D): half of the actin bundled
- effect of phalloidin on bundling activity of the peptide (rabbit muscle actin; FIG. 7): not affected
- In vitro actin bundling activity (rabbit muscle actin): active
- distribution of actin between bundled and F-actin fraction (rabbit muscle actin; added to unpolymerized actin, molar ratio peptide to actin 0.5, FIG. 6A): half-bundled and half-F-actin
- activity designation of the peptide in the sequence list (active / less active / inactive) (rabbit muscle actin): SS2 active
- amount of aldolase co-precipitating with polymerized actin ([3]; 2 nmol actin, FIG. 7B): increased
- aldolase precipitation in the absence of actin ([3]; FIG. 7A): no effect

Sequence: RRISSVEDKK (SP3 inactive synthetic peptide) [reference compound]
- bundled actin upon inducing polymerization (rabbit muscle actin; [5]): do not produce bundled actin
- In vitro actin bundling activity (rabbit muscle actin): inactive
- activity designation of the peptide in the sequence list (active / less active / inactive) (rabbit muscle actin): SP3 inactive

Sequence: GDRVLSRLHSVRERIGK (synthetic SS1 inactive control peptide) [reference compound]
- effect on cell division of embryos [2]: no effect
- activity designation of the peptide in the sequence list (active / less active / inactive) (rabbit muscle actin): SS1 inactive
- effect on actin-filled lamellipodia (MDA 231 cells): no effect
- % change in cell number [4]: +45.0%
- % change in cell number ([4]; peptide concentration 0.2 μM): +1.2%
- % change in cell number ([4]; peptide concentration 1.0 μM): +17.4%
- % change in cell number ([4]; peptide concentration 10.0 μM): +43.8%

Sequence: ILRVPFRTENGIVRK (SS11 inactive synthetic peptide)
- bundling of actin during in vitro polymerization (rabbit muscle actin): not effective in bundling; also recorded: did not cause actin to bundle
- bundled actin upon inducing polymerization (rabbit muscle actin; [5]): do not produce bundled actin
- In vitro actin bundling activity (rabbit muscle actin): inactive
- activity designation of the peptide in the sequence list (active / less active / inactive) (rabbit muscle actin): SS11 inactive

Sequence: GIVRKAISRFEVAPYL (SS15 less active synthetic peptide)
- bundled actin upon inducing polymerization (rabbit muscle actin; [5]): did not cause bundled actin
- In vitro actin bundling activity (rabbit muscle actin): less active
- form of polymerised actin (rabbit muscle actin; molar ratio peptide:actin 10:1 and 100:1, added to unpolymerized actin, FIG. 6E): predominantly in the bundled form
- activity designation of the peptide in the sequence list (active / less active / inactive) (rabbit muscle actin): SS15 less active

Continued, in another order:

- In vitro actin bundling activity (rabbit muscle actin): inactive
- activity designation of the peptide in the sequence list (active / less active / inactive) (rabbit muscle actin): NR11 inactive
Sequence: GPTLKRTASTAFMNTTSKK (NR11 inactive synthetic peptide) [reference compound]

- In vitro actin bundling activity (rabbit muscle actin): less active
- activity designation of the peptide in the sequence list (active / less active / inactive) (rabbit muscle actin): SMIN less active
Sequence: WISRFEVW (Small block of SS12 sequence required for less active synthetic peptide) [SMIN]

- In vitro actin bundling activity (rabbit muscle actin): inactive
- activity designation of the peptide in the sequence list (active / less active / inactive) (rabbit muscle actin): SP26 inactive
Sequence: GRMRRIATVEMMKK (SP26 inactive synthetic peptide) [reference compound]
- bundling of actin during in vitro polymerization (rabbit muscle actin): not able to bundle actin filaments in vitro

— patent US8039438B2, “Synthetic peptides that cause F-actin bundling and block actin depolymerization” (The Regents of the University of California, priority 2003, dated 2011)
